Results: patent US20240299505A1 (INDUSTRY UNIVERSITY COOPERATION FOUNDATION HANYANG …, published 2024)

T1: endogenous TLR4 of mouse macrophages (BMDMs) and mouse colon (mouse, UniProt Q9QUK6 26-835)
T1 construct: whole, on cells; Detected by immunoblot after co-immunoprecipitation from lysates
T1 sequence (looked up): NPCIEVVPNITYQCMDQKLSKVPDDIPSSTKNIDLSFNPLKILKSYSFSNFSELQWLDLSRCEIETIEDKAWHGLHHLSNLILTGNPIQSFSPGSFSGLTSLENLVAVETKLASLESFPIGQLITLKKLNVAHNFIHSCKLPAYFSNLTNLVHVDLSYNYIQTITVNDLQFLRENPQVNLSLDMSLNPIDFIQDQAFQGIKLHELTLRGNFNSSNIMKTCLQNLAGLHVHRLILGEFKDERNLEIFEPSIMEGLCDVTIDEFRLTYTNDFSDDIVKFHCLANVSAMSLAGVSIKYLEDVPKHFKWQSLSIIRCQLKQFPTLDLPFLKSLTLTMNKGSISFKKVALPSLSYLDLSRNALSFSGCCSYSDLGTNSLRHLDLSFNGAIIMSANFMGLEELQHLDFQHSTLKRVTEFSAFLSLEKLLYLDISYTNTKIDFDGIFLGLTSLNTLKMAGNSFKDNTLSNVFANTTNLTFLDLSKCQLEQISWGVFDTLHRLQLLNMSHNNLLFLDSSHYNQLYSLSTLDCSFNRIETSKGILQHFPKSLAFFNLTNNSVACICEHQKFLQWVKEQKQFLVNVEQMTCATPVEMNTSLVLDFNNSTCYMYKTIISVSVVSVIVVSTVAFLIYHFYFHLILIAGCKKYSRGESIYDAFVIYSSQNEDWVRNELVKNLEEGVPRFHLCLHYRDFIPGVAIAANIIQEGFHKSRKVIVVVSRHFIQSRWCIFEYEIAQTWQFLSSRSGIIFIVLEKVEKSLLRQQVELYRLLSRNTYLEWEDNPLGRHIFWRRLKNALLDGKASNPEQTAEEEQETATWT

T2: endogenous CYBB of mouse macrophages (BMDMs) and mouse colon (mouse, UniProt Q61093 2-570)
T2 construct: whole, on cells; Detected by immunoblot after co-immunoprecipitation from lysates; also called NOX2; gp91Phox
T2 sequence (looked up): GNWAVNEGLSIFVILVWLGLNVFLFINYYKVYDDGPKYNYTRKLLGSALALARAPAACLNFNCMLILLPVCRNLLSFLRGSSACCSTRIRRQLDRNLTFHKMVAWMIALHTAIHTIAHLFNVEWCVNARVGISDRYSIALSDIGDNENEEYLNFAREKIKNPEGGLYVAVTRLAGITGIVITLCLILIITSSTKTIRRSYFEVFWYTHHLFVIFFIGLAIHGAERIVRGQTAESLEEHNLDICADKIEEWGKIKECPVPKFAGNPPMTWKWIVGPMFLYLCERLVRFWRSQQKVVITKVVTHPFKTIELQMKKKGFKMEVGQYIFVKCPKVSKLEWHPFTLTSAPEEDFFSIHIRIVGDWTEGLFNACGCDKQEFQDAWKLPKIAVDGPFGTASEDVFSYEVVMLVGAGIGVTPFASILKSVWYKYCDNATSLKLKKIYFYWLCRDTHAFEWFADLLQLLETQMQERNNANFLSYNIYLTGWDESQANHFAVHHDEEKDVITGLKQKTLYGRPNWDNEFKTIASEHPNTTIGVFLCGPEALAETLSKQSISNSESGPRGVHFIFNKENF

B1: recombinant NAMPT protein (rNAMPT) (enzyme)
chain: MNPAAEAEFNILLATDSYKVTHYKQYPPNTSKVYSYFECREKKTENSKLRKVKYEETVFYGLQYILNKYLKGKVVTKEKIQEAKDVYKEHFQDDVFNEKGWNYILEKYDGHLPIEIKAVPEGFVIPRGNVLFTVENTDPECYWLTNWIETILVQSWYPITVATNSREQKKILAKYLLETSGNLDGLEYKLHDFGYRGVSSQETAGIGASAHLVNFKGTDTVAGLALIKKYYGTKDPVPGYSVPAAEHSTITAWGKDHEKDAFEHIVTQFSSVPVSVVSDSYDIYNACEKIWGEDLRHLIVSRSTQAPLIIRPDSGNPLDTVLKVLEILGKKFPVTENSKGYKLLPPYLRVIQGDGVDINTLQEIVEGMKQKMWSIENIAFGSGGGLLQKLTRDLLNCSFKCSYVVTNGLGINVFKDPVADPNKRSKKGRLSLHRTPAGNFVTLEEGKGDLEEYGQDLLHTVFKNGKVTKSYSFDEIRKNAQLNIELEAAHH
notes: Pulled down with anti-His, so it carries a His tag; also called eNAMPT (rNAMPT); unlabeled NAMPT
B2: fluorescently labeled CYBB (enzyme)
chain: MGNWAVNEGLSIFVILVWLGLNVFLFVWYYRVYDIPPKFFYTRKLLGSALALARAPAACLNFNCMLILLPVCRNLLSFLRGSSACCSTRVRRQLDRNLTFHKMVAWMIALHSAIHTIAHLFNVEWCVNARVNNSDPYSVALSELGDRQNESYLNFARKRIKNPEGGLYLAVTLLAGITGVVITLCLILIITSSTKTIRRSYFEVFWYTHHLFVIFFIGLAIHGAERIVRGQTAESLAVHNITVCEQKISEWGKIKECPIPQFAGNPPMTWKWIVGPMFLYLCERLVRFWRSQQKVVITKVVTHPFKTIELQMKKKGFKMEVGQYIFVKCPKVSKLEWHPFTLTSAPEEDFFSIHIRIVGDWTEGLFNACGCDKQEFQDAWKLPKIAVDGPFGTASEDVFSYEVVMLVGAGIGVTPFASILKSVWYKYCNNATNLKLKKIYFYWLCRDTHAFEWFADLLQLLESQMQERNNAGFLSYNIYLTGWDESQANHFAVHHDEEKDVITGLKQKTLYGRPNWDNEFKTIASQHPNTRIGVFLCGPEALAETLSKQSISNSESGPRGVHFIFNKENF
B3: endogenous NAMPT / extracellular NAMPT (eNAMPT) of mouse macrophages (BMDMs) and mouse colon (enzyme, UniProt Q99KQ4 1-491, looked up)
chain: MNAAAEAEFNILLATDSYKVTHYKQYPPNTSKVYSYFECREKKTENSKVRKVKYEETVFYGLQYILNKYLKGKVVTKEKIQEAKEVYREHFQDDVFNERGWNYILEKYDGHLPIEVKAVPEGSVIPRGNVLFTVENTDPECYWLTNWIETILVQSWYPITVATNSREQKKILAKYLLETSGNLDGLEYKLHDFGYRGVSSQETAGIGASAHLVNFKGTDTVAGIALIKKYYGTKDPVPGYSVPAAEHSTITAWGKDHEKDAFEHIVTQFSSVPVSVVSDSYDIYNACEKIWGEDLRHLIVSRSTEAPLIIRPDSGNPLDTVLKVLDILGKKFPVTENSKGYKLLPPYLRVIQGDGVDINTLQEIVEGMKQKKWSIENVSFGSGGALLQKLTRDLLNCSFKCSYVVTNGLGVNVFKDPVADPNKRSKKGRLSLHRTPAGNFVTLEEGKGDLEEYGHDLLHTVFKNGKVTKSYSFDEVRKNAQLNIEQDVAPH
notes: Endogenous protein of mouse cells or tissue, immunoprecipitated with anti-NAMPT; also called iNAMPT
B4: endogenous ASC of mouse macrophages (BMDMs) (other, UniProt Q9EPB4 1-193, looked up)
chain: MGRARDAILDALENLSGDELKKFKMKLLTVQLREGYGRIPRGALLQMDAIDLTDKLVSYYLESYGLELTMTVLRDMGLQELAEQLQTTKEESGAVAAAASVPAQSTARTGHFVDQHRQALIARVTEVDGVLDALHGSVLTEGQYQAVRAETTSQDKMRKLFSFVPSWNLTCKDSLLQALKEIHPYLVMDLEQS

How the values were obtained:
[1] = biological target: T3, endogenous NLRP3 of mouse macrophages (BMDMs) (mouse, UniProt Q8R4B8 1-1033, limits assumed); experiment: co-IP (anti-His) from BMDMs incubated with rNAMPT, anti-NLRP3 blot
T3 sequence (Q8R4B8 whole entry): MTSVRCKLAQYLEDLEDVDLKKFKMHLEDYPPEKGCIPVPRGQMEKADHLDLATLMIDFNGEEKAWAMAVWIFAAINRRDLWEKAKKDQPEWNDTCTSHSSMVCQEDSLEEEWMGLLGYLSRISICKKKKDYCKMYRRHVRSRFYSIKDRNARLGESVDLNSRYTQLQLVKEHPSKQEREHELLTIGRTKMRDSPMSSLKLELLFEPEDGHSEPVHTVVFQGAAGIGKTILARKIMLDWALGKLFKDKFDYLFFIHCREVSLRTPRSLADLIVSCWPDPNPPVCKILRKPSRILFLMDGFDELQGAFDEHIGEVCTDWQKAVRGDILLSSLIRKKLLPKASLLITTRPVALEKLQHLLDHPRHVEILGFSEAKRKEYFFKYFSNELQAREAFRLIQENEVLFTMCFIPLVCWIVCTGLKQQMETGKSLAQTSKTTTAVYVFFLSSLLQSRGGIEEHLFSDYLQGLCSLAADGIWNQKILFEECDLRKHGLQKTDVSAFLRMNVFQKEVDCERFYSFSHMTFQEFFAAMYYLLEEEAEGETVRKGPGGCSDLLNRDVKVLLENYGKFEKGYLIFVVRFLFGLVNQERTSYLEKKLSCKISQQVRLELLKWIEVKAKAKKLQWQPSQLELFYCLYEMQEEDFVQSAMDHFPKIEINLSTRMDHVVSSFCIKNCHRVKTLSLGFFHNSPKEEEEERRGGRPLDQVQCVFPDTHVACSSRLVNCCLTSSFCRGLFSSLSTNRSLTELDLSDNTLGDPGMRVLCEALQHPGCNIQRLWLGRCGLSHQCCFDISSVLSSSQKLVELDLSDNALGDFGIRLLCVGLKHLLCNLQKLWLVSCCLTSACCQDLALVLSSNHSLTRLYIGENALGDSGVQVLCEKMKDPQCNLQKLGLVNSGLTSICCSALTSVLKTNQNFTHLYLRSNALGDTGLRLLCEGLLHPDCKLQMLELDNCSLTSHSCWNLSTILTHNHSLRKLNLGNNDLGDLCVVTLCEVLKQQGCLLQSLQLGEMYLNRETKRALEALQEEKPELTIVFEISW

[2] = biological target: B1; experiment: fluorescence binding: titration of fluorescently labeled CYBB with unlabeled rNAMPT, curve fit
Experimental: Specifically, (A) normal human cases along with UC patients were used for IB with αNAMPT and αCYBB. For IB with αActin (upper), whole cell lysates (WCLs) were used. Representative gel images derived from five independent healthy controls and patients were shown. […] Five of ten data from normal human and UC patients were shown. […] (B) The colons of normal mice and mice with acute and chronic colitis were analyzed for IB with αNAMPT and αCYBB. WCLs were used for IB together with αActin. Biological replicates (n=10) for each condition were performed. (C) BMDMs were activated with LPS (100 ng/mL) for the indicated times (left), primed with LPS (100 ng/ml) for 4 hours, and then stimulated with ATP (1 mM) for the indicated times (right). IB in the supernatant (SN) with αNAMPT and WCL with αNAMPT or αActin. […] BMDMs were treated for IP with αNAMPT or αHis, and then treated sequentially IB with αTLR4, αCYBB, or αCYBA (D), and IB with αASC or αNLRP3(E). WCLs were used for IB with αTLR4, αCYBB, αCYBA, αASC, αNLRP3 or αActin.

[3] = biological target: T3, endogenous NLRP3 of mouse macrophages …; experiment: co-IP (anti-NAMPT) from LPS/ATP-treated BMDMs, anti-NLRP3 blot
[4] = biological target: T1, endogenous TLR4 of mouse macrophages …; experiment: co-IP (anti-His or anti-NAMPT) from mouse colon tissue, anti-TLR4 blot
[5] = biological target: T2, endogenous CYBB of mouse macrophages …; experiment: co-IP (anti-His or anti-NAMPT) from mouse colon tissue, anti-CYBB blot
[6] = biological target: B3; experiment: co-IP (anti-NAMPT) from LPS/ATP-treated BMDMs, anti-ASC blot
[7] = biological target: B1; experiment: co-IP (anti-His) from BMDMs incubated with rNAMPT, anti-ASC blot

## B1
[1]
  binding result: no binding (tested: 1 ug/mL rNAMPT)

## B2
[2]
  Kd: 896 nM

## B3
[3]
  binding result: no binding
[4]
  binding result: binds
[5]
  binding result: binds

## B4
[6]
  binding result: no binding
[7]
  binding result: no binding (tested: 1 ug/mL rNAMPT)
